{
  "source": "the nanobody polyreactivity screen of Harvey et al. (2022)",
  "data": [
    {"experiment": "yeast display, Sf9 membrane polyspecificity reagent, FACS + sequencing; frameworks hold sequencing errors", "how_it_was_run": "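Sorting gates, low and high (top ~1%), were placed on anti-HA fluorescence to track expression and on streptavidin fluorescence to track reagent binding. A clone's polyreactivity label is taken from the gate it came out of. The reagent was 10% biotinylated, detergent-solubilized Sf9 membrane, applied for 1 hour at 4 °C to galactose-induced yeast display cells.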", "values": [
      {"sequence": "QVQLVESGGGLVQAGGSLRLSCAASGFTFYRYAMGWYRQAPGKERELVAAISKRGGNTYYADSVKGRFTISRDNAKNTVYLQMNSLKPEDTAVYYCAADFATWDAKPYDYWGQGTQVTVSS", "polyreactivity (PSR sort gate)": "high polyreactivity"},
      {"sequence": "QVQLVESAGDLVQAGRTLRFSCAPSGSIFKPNAMGWYRQAPGKERELVDDISRSGTSTYYADSVKGRFTISRDIAKNTVYLQMNSLKPEDTAVFNCATRYSGDYGYWGQGTQVTVSS", "polyreactivity (PSR sort gate)": "high polyreactivity"},
      {"sequence": "QVQLVESGGGLVQAGGSLRLSCAASGSIFKSNAMGWYRQAPGKERELVAAISNGGITNYADSVKGRFTISRDNAKNSVYLQMNSLKPEDTAVYYCATSDVREIWVDYWGQGTQVTVSS", "polyreactivity (PSR sort gate)": "low polyreactivity"},
      {"sequence": "QVQHVESGGGLVQAGGSLRLSCAASGSIFSYYAMGWYRQPPGKERELVATISSGDSTYYADSVKGRFTISRDNAKKTVYLQMNSLKPEDTAVYYCARKPRIRYYPAPYDYWGQGTQVTVSS", "polyreactivity (PSR sort gate)": "low polyreactivity"},
      {"sequence": "QVQLVESGGGLVQAGGSLRLSCAASGRTTWIYAMGWYRQAPGKERELVAVISKRGGNTYYADSVKGRFTISRDNAKNTVYLQMNSLKPADTAVYYCAAAGVYGSYDYWGQGTQVTVSS", "polyreactivity (PSR sort gate)": "high polyreactivity"},
      {"sequence": "QVQLVESGGGLVQAGGSLRLSCAASGFTFRGYAMGWYRQAPGIERELVATISRRAASTYYADTVKGRFTISRDNAKNTVYLLMNSLKPEDTAVYYCAKVNRYDDDRDGFGYWGHGTQVTVSS", "polyreactivity (PSR sort gate)": "high polyreactivity"},
      {"sequence": "QVQLVESGGGLVQAGGSLRLSCAASGSIFGQNAMGWYRQAPGKERELVAAITSGAGITYYADSVKGRFTISRDNAKNTVYLQMNSLKPEDTAVYYCNAVPSWTPSPLFDYWGLGTQVTVSS", "polyreactivity (PSR sort gate)": "low polyreactivity"},
      {"sequence": "QVQLVESGGGLVQAGGSLRLSCAASGSIFRVYGMGWYRQAPGKERELVAAITWSGGSTYYADSVKGRFTISRDNAKNTVYLQMNSLKPEDTAVYYCNADKFRRYGYWGQGTQVTVSS", "polyreactivity (PSR sort gate)": "high polyreactivity"},
      {"sequence": "QVQLVESGGGLVQAGGSLRLSCAASGLIFGVYAMGWYRQAPGKESELVAAISKNGDRTYYADSVKGRFTISRDNAKNTVYLQMNCLKPEDTAVYYCAAVWARSTYGPYYYWGQGTQVTVSS", "polyreactivity (PSR sort gate)": "high polyreactivity"},
      {"sequence": "QVQLVESGGGLVQAGGRLRLSCAASGRTYYTYAMGWYRQAPGKERELVAAITWDGGSTYYADSVKGRFTISRDNAKNTVYLQMNSLKPEDTAVYYCADDLYDTYGTFDYWGQGTQVTVSS", "polyreactivity (PSR sort gate)": "low polyreactivity"},
      {"sequence": "QVHLVESGGGLVQAGGSLRLSCAASGFLFDVYAMGWYRQAPGKERELVAAISRSGGSTYYADSVKGRFTISRDNAKNTVYLQMNSLKPEDTAVYYCATDLLNNVDYDYWGQGTQVTVSS", "polyreactivity (PSR sort gate)": "low polyreactivity"},
      {"sequence": "QVQLVESGGGLVQAGGSLRLTCAASGSIFTGYAMRCYRQAPGTERELVAAIRTRGGSPYYADSVKGRFTISRDNAKNTVYLQMNSLKPEDTALYYCAKRYYGWYGNFDYWGQGTQVTVSS", "polyreactivity (PSR sort gate)": "high polyreactivity"},
      {"sequence": "QVQLVESGGGLVQAGGSLRLSCAASGSILTVYAMGWYRQAHGKERELVARIRSGDRTYYADSVKGRFTISRDNAKNTVYLQMNSLKPEDTAVYYCAAGSQRRYYHTNWDSFNYWGQGTQVTVSS", "polyreactivity (PSR sort gate)": "low polyreactivity"},
      {"sequence": "QVQLVESGRGLVQAGGSLRLSCASSGRIFRYYDMGWYRQAPGKERDFVAAITRSGAITYYADSVKGRFTISRDNAKNTVYLQMNSLKPEDTAVYYCNADFQDRTYDYDYWGQGTQVTVSS", "polyreactivity (PSR sort gate)": "low polyreactivity"},
      {"sequence": "QVQLVESGGGLDQAGGSLRLSCAASGFIYWYYAMGWYRQAPVKERELVAAITRGGSTNYADSVKGRFTISRDNAKNTVYFQKNRLKPEDTSVYYCNASWRLVSSGFDGGYWGEGTQVTVSS", "polyreactivity (PSR sort gate)": "high polyreactivity"},
      {"sequence": "QVQLVESGGGLVQAGGSLRLSCAASVSTFDSYVMGWYRQAPGKERELVAAITSGGSTYYADSVKGRFTISRDNAKNTVYLQMNSLKPVDTAVYYCNRDERVGKWGYYWGQGTQVTVSS", "polyreactivity (PSR sort gate)": "low polyreactivity"},
      {"sequence": "QVQLVESGGGLVQAGGSLRLSCAASGFIFRPYAMGWYRQAPGKERELVATIRWGASSTHYADSVKGRFTISRDNAKNTVYLQMNSLKPEDTAVYDCNADGWYGAVYWWFYGFDYWGQGTQVTVSS", "polyreactivity (PSR sort gate)": "low polyreactivity"}
    ]}
  ]
}
